Data from patent US20150344570A1 (published 2015).

B1: GpH7-A5/GpH7-B3 variant P329_02A/GpL16-k0 (antibody, human IgG1, kappa)
heavy 1: not shown
heavy 2: not shown
light: DIVMTQSPLSLPVTPGEPASISCQASESLVHSNRNTYLHWYLQKPGQSPQLLIYKVSNRFSGVPDRFSGSGSGTDFTLKISRVEAEDVGVYYCSQNTHVPPTFGQGTKVEIERTVAAPSVFIFPPSDEQLKSGTASVVCLLNNFYPREAKVQWKVDNALQSGNSQESVTEQDSKDSTYSLSSTLTLSKADYEKHKVYACEVTHQGLSSPVTKSFNRGEC
notes: Heterodimerized anti-glypican-3 IgG1 antibody; alteration only in the GpH7-B3 H chain; position in EU numbering; also called He Ab
B2: GpH7-A5/GpH7-B3 variant P329_03V/GpL16-k0 (antibody, human IgG1, kappa)
heavy 1: not shown
heavy 2: not shown
light: B1 light
notes: as for B1
B3: GpH7-A5/GpH7-B3 variant S298_14T/GpL16-k0 (antibody, human IgG1, kappa)
heavy 1: not shown
heavy 2: not shown
light: B1 light
notes: as for B1
B4: GpH7-A5/GpH7-B3 variant P329_11K/GpL16-k0 (antibody, human IgG1, kappa)
heavy 1: not shown
heavy 2: not shown
light: B1 light
notes: as for B1
B5: GpH7-A5/GpH7-B3 variant P329_12R/GpL16-k0 (antibody, human IgG1, kappa)
heavy 1: not shown
heavy 2: not shown
light: B1 light
notes: as for B1
B6: GpH7-A5/GpH7-B3 variant S298_16H/GpL16-k0 (antibody, human IgG1, kappa)
heavy 1: not shown
heavy 2: not shown
light: B1 light
notes: as for B1
B7: GpH7-A5/GpH7-B3 variant P329_06M/GpL16-k0 (antibody, human IgG1, kappa)
heavy 1: not shown
heavy 2: not shown
light: B1 light
notes: as for B1
B8: GpH7-A5/GpH7-B3 variant S298_20W/GpL16-k0 (antibody, human IgG1, kappa)
heavy 1: not shown
heavy 2: not shown
light: B1 light
notes: as for B1
B9: GpH7-A5/GpH7-B3 variant S298_11K/GpL16-k0 (antibody, human IgG1, kappa)
heavy 1: not shown
heavy 2: not shown
light: B1 light
notes: as for B1
B10: GpH7-A5/GpH7-B3 variant P329_09D/GpL16-k0 (antibody, human IgG1, kappa)
heavy 1: not shown
heavy 2: not shown
light: B1 light
notes: as for B1
B11: GpH7-A5/GpH7-B3 variant P329_07I/GpL16-k0 (antibody, human IgG1, kappa)
heavy 1: not shown
heavy 2: not shown
light: B1 light
notes: as for B1
B12: GpH7-A5/GpH7-B3 variant P329_14T/GpL16-k0 (antibody, human IgG1, kappa)
heavy 1: not shown
heavy 2: not shown
light: B1 light
notes: as for B1
B13: GpH7-A5/GpH7-B3 variant P329_15Y/GpL16-k0 (antibody, human IgG1, kappa)
heavy 1: not shown
heavy 2: not shown
light: B1 light
notes: as for B1
B14: GpH7-A5/GpH7-B3 variant P329_10E/GpL16-k0 (antibody, human IgG1, kappa)
heavy 1: not shown
heavy 2: not shown
light: B1 light
notes: as for B1
B15: GpH7-A5/GpH7-B3 variant P329_18N/GpL16-k0 (antibody, human IgG1, kappa)
heavy 1: not shown
heavy 2: not shown
light: B1 light
notes: as for B1
B16: GpH7-A5/GpH7-B3 variant S298_18N/GpL16-k0 (antibody, human IgG1, kappa)
heavy 1: not shown
heavy 2: not shown
light: B1 light
notes: as for B1
B17: GpH7-A5/GpH7-B3 variant S298_15Y/GpL16-k0 (antibody, human IgG1, kappa)
heavy 1: not shown
heavy 2: not shown
light: B1 light
notes: as for B1
B18: GpH7-A5/GpH7-B3 variant P329_08L/GpL16-k0 (antibody, human IgG1, kappa)
heavy 1: not shown
heavy 2: not shown
light: B1 light
notes: as for B1
B19: GpH7-A5/GpH7-B3 variant S298_10E/GpL16-k0 (antibody, human IgG1, kappa)
heavy 1: not shown
heavy 2: not shown
light: B1 light
notes: as for B1
B20: GpH7-A5/GpH7-B3 variant P329_19Q/GpL16-k0 (antibody, human IgG1, kappa)
heavy 1: not shown
heavy 2: not shown
light: B1 light
notes: as for B1
B21: GpH7-A5/GpH7-B3 variant S298_19Q/GpL16-k0 (antibody, human IgG1, kappa)
heavy 1: not shown
heavy 2: not shown
light: B1 light
notes: as for B1
B22: GpH7-A5/GpH7-B3 variant P329_13S/GpL16-k0 (antibody, human IgG1, kappa)
heavy 1: not shown
heavy 2: not shown
light: B1 light
notes: as for B1
B23: GpH7-A5/GpH7-B3 variant S298_12R/GpL16-k0 (antibody, human IgG1, kappa)
heavy 1: not shown
heavy 2: not shown
light: B1 light
notes: as for B1
B24: GpH7-A5/GpH7-B3 variant P329_16H/GpL16-k0 (antibody, human IgG1, kappa)
heavy 1: not shown
heavy 2: not shown
light: B1 light
notes: as for B1
B25: GpH7-A5/GpH7-B3 variant P331_01G/GpL16-k0 (antibody, human IgG1, kappa)
heavy 1: not shown
heavy 2: not shown
light: B1 light
notes: as for B1
B26: GpH7-A5/GpH7-B3 variant P329_04F/GpL16-k0 (antibody, human IgG1, kappa)
heavy 1: not shown
heavy 2: not shown
light: B1 light
notes: as for B1

What follows are binders tested against T1, FcγRIIa R (human, UniProt P12318 34-217) (assay: SPR (Biacore), antibody captured via antigen peptide, FcγR as analyte).
T1 construct: extracellular domain; Soluble His-tagged extracellular domain expressed in FreeStyle293 cells; analyte in Biacore; also called FcgRIIa R; FcgRIIaR; not shown: His tag attached to the C terminus
T1 sequence (looked up): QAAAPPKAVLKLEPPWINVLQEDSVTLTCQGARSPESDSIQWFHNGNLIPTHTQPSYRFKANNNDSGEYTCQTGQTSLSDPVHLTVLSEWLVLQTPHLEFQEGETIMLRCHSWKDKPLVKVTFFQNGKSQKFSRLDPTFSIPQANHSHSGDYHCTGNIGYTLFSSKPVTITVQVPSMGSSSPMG
Procedure: (§1) The heterodimerized antibodies He Abs in which one of the H chains was introduced with an alteration were assayed for their binding activities to each activating FcγR and inhibitory FcγR according to the method described in Example 4. […] The activating FcγRs in FIGS. 26, 27, 28, and 29 are FcγRIa, FcγRIIa (R), FcγRIIa (H), and FcγRIIIa, respectively.
(§2) Analysis of interaction between objective antibody and the FcγR was carried out using Biacore T100 (GE Healthcare). HBS-EP+ (GE Healthcare) was used as the running buffer, and the measurement temperature was set to 25° C. Chips produced by immobilizing the antigen peptide by the amine coupling method to a Series S Sencor Chip CM5 (GE Healthcare), or alternatively, chips produced by allowing preliminarily biotinylated antigen peptides to interact with and immobilize onto a Series S Sensor Chip SA (certified) (GE Healthcare) were used. Antibodies of interest were captured onto an antigen peptide-immobilized chip, and allowed to interact to each FcγR diluted with running buffer. To regenerate and repeatedly use the chip, the antibodies captured on the chip were washed off by reacting 10 mM glycine-HCl, pH 1.5.

| Binder | He/Con_2aR (IIaR binding relative to GpH7-A5/GpH7-B3/GpL16-k0) |
| --- | --- |
| B1 | 58.9 % of control (control = 100) |
| B2 | 53.8 % of control (control = 100) |
| B3 | 98.5 % of control (control = 100) |
| B4 | 30.2 % of control (control = 100) |
| B5 | 29.3 % of control (control = 100) |
| B6 | 88.5 % of control (control = 100) |
| B7 | 42.7 % of control (control = 100) |
| B8 | 55.4 % of control (control = 100) |
| B9 | 95.1 % of control (control = 100) |
| B10 | 67.8 % of control (control = 100) |
| B11 | 49.6 % of control (control = 100) |
| B12 | 57.3 % of control (control = 100) |
| B13 | 67.9 % of control (control = 100) |
| B14 | 64.8 % of control (control = 100) |
| B15 | 61.2 % of control (control = 100) |
| B16 | 68 % of control (control = 100) |
| B17 | 79.1 % of control (control = 100) |
| B18 | 42.8 % of control (control = 100) |
| B19 | 65.1 % of control (control = 100) |
| B20 | 41.1 % of control (control = 100) |
| B21 | 95 % of control (control = 100) |
| B22 | 61.5 % of control (control = 100) |
| B23 | 85.3 % of control (control = 100) |
| B24 | 56.7 % of control (control = 100) |
| B25 | 61 % of control (control = 100) |
| B26 | 44.7 % of control (control = 100) |

These binders were tested against T2, FcγRIIb (human, UniProt P31994 43-217) in the same assay as above.
T2 construct: extracellular domain; Soluble His-tagged extracellular domain expressed in FreeStyle293 cells; analyte in Biacore; also called FcgRIIb; 2b; not shown: His tag attached to the C terminus
T2 sequence (looked up): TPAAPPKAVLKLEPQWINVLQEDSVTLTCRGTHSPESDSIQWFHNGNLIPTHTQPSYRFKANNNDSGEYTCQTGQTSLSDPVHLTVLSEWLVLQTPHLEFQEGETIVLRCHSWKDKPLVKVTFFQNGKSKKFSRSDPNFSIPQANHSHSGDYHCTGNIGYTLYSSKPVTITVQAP
Procedure: as §1, §2

| Binder | He/Con_2b (IIb binding relative to GpH7-A5/GpH7-B3/GpL16-k0) |
| --- | --- |
| B1 | 40.5 % of control (control = 100) |
| B2 | 38.5 % of control (control = 100) |
| B3 | 77.9 % of control (control = 100) |
| B4 | 16.9 % of control (control = 100) |
| B5 | 17.6 % of control (control = 100) |
| B6 | 63.5 % of control (control = 100) |
| B7 | 29.1 % of control (control = 100) |
| B8 | 41.1 % of control (control = 100) |
| B9 | 61.3 % of control (control = 100) |
| B10 | 53.5 % of control (control = 100) |
| B11 | 34.6 % of control (control = 100) |
| B12 | 37.9 % of control (control = 100) |
| B13 | 45.7 % of control (control = 100) |
| B14 | 52.7 % of control (control = 100) |
| B15 | 40.4 % of control (control = 100) |
| B16 | 48.1 % of control (control = 100) |
| B17 | 61.4 % of control (control = 100) |
| B18 | 29.1 % of control (control = 100) |
| B19 | 47.6 % of control (control = 100) |
| B20 | 30.7 % of control (control = 100) |
| B21 | 73.3 % of control (control = 100) |
| B22 | 41 % of control (control = 100) |
| B23 | 57.8 % of control (control = 100) |
| B24 | 39.1 % of control (control = 100) |
| B25 | 45.4 % of control (control = 100) |
| B26 | 32.2 % of control (control = 100) |

The binders below were run against T1, FcγRIIa R (assay: ratio of He/Con_2aR to He/Con_2b (binding to FcγRIIb as reference); SPR).

| Binder | He_2aR/2b (IIaR/IIb) |
| --- | --- |
| B1 | 1.45 |
| B2 | 1.4 |
| B3 | 1.26 |
| B4 | 1.79 |
| B5 | 1.66 |
| B6 | 1.39 |
| B7 | 1.47 |
| B8 | 1.35 |
| B9 | 1.55 |
| B10 | 1.27 |
| B11 | 1.44 |
| B12 | 1.51 |
| B13 | 1.49 |
| B14 | 1.23 |
| B15 | 1.51 |
| B16 | 1.41 |
| B17 | 1.29 |
| B18 | 1.47 |
| B19 | 1.37 |
| B20 | 1.34 |
| B21 | 1.3 |
| B22 | 1.5 |
| B23 | 1.48 |
| B24 | 1.45 |
| B25 | 1.34 |
| B26 | 1.39 |
